Positions count from the first letter of the chain named.
Columns and labels:
[1] = biological target: T1, Fusarium oxysporum lipase (FoL) variant [change] (Fusarium oxysporum); test: cell-based or functional assay
T1 chain: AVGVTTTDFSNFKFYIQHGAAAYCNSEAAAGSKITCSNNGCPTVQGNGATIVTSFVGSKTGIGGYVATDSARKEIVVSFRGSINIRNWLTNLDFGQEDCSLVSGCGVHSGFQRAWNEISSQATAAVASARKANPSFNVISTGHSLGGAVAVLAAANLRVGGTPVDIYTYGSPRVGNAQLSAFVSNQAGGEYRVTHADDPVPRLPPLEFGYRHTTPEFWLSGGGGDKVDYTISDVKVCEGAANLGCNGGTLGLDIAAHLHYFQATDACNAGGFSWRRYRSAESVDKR

[2] = biological target: T2, Fusarium oxysporum lipase (FoL), wild type (Fusarium oxysporum); test: cell-based or functional assay
T2 chain: T1 chain with E207I

## ATMTDAELEKKLNSYVQMDKEYVKNNQARS (modifications not checked) [Peptide P0 (wildtype FoL C-terminal peptide)]
[1]
  IC50 (half maximal inhibitory concentration; p-NP butyrate hydrolysis) (peptide/lipase ratio): 287
[2]
  IC50 (half maximal inhibitory concentration; p-NP butyrate hydrolysis) (peptide/lipase ratio): 913

From patent publication US20090275083A1
